Results from the supplement of paper PMC10126150.
± gives the standard deviation of the averaged measurements.

Tested on: ATP
Test: switch fluorescence ratio, 500 uM ATP over buffer (Cy3 cluster intensity, sum of 5 cycles each) (fold (ratio)); higher = stronger signal-on switching upon ATP binding; sequences stand for … in TCGTCGGCAGCGTCAGATGTGTATAAGAGACAGTTTTTTTTTTTTTTTTTTTTTTTTT…TC
Settings: aptamer strand: ATP DNA aptamer (quencher-CACCTGGGGGAGTATTGCGGAGGAAGG + anchor), 100 nM annealed; ATP concentration: 500 uM
Procedure, shortened: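 Imaging in selection buffer was followed by imaging after 15 min with 500 uM ATP at 22 °C, for Cy3-labelled switching-strand clusters annealed to 100 nM quencher-labelled ATP aptamer on a modified Illumina MiSeq flow-cell. Five of these buffer/ATP cycles ran, separated by NaOH stripping and re-annealing. The fluorescence ratio per cluster is summed target-cycle over summed buffer-cycle Cy3 intensity, averaged per switch-domain sequence; clusters outside 100-1000 RFU were removed.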
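Further: ATP exposure 15 min at 22 °C before imaging.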

Sequence	switch fluorescence ratio
GATAATGGTT	0.964 ± 0.011
GATAATTGGG	0.9992 ± 0.0079
GATACATGCT	0.979 ± 0.036
GATACCATGG	0.985 ± 0.03
GATACCTATG	1.03 ± 0.027
GATACGCCAC	2.11 ± 0.06
GATACGTAGG	1.009 ± 0.0049
GATACTATTT	0.98 ± 0.03
GATACTCTTA	1.021 ± 0.0081
GATACTGATC	1.13 ± 0.042
GATACTGGGT	0.995 ± 0.046
GATAGAAAGC	0.9852 ± 0.0027
GATAGACGCA	1.1 ± 0.089
GATAGACTTA	0.949 ± 0.03
GATAGAGGGT	1.01 ± 0.033
GATAGAGGTG	1.32 ± 0.62
GATAGATCAG	0.993 ± 0.018
GATAGGAAAC	1.12 ± 0.12
GATAGGGAGG	0.993 ± 0.016
GATAGGGGCG	0.998 ± 0.026
GATAGGGTGC	1.14 ± 0.044
GATAGGTGAG	1.01 ± 0.024
GATAGGTGGT	0.9691 ± 0.0046
GATAGTTCGT	1.01 ± 0.021
GATAGTTTAC	1.01 ± 0.044

Sequence	switch fluorescence ratio
GATAGTTTTG	0.9856 ± 0.0089
GATAGTTTTT	0.985 ± 0.03
GATATAAAGA	0.994 ± 0.046
GATATAACAT	1.028 ± 0.0025
GATATAAGGG	0.979 ± 0.042
GATATAATGG	0.9999 ± 0.0019
GATATCCGTA	0.962 ± 0.015
GATATGGGTA	1.02 ± 0.035
GATATTAGTG	0.9827 ± 0.0044
GATATTTAGT	0.995 ± 0.011
GATATTTCCC	0.9981 ± 0.0064
GATATTTTAG	1.009 ± 0.0087
GATATTTTGT	0.997 ± 0.031
GATCAACTGT	1 ± 0.032
GATCAAGGCA	1.017 ± 0.0012
GATCACAGGG	1.13 ± 0.01
GATCATAGTT	0.995 ± 0.013
GATCATCAGG	1 ± 0.012
GATCATGGGA	1.03 ± 0.093
GATCGAACGT	1.017 ± 0.0085
GATCGCCCCG	1 ± 0.02
GATCGGAGCG	1.04 ± 0.047
GATCGGAGGG	1.01 ± 0.027
GATCGGGCCG	0.975 ± 0.052
GATCGGGGTA	1.014 ± 0.0071

Sequence	switch fluorescence ratio
GATCGTGAGT	1 ± 0.015
GATCTAAAAC	0.9594 ± 0.0053
GATCTAGTTA	0.996 ± 0.054
GATCTATTGT	0.9619 ± 0.0088
GATCTCAGTT	1.02 ± 0.036
GATCTCGTGG	1.01 ± 0.056
GATCTGAAGT	1.02 ± 0.012
GATCTGGGTT	0.994 ± 0.031
GATCTTAACG	0.9912 ± 0.0096
GATCTTTCTG	0.994 ± 0.041
GATGAAGCCT	1.17 ± 0.035
GATGAAGGTT	0.992 ± 0.027
GATGAATTAG	1.005 ± 0.0082
GATGACACGA	1.033 ± 0.01
GATGACAGAG	0.974 ± 0.047
GATGACCTCA	0.998 ± 0.093
GATGAGGTGT	1.01 ± 0.036
GATGATGTGT	1.02 ± 0.031
GATGATGTTC	0.9439 ± 0.0072
GATGCAAGGG	1.83 ± 0.14
GATGCAGTAT	1.12 ± 0.044
GATGCGGCTA	1.02 ± 0.018
GATGCTAGAC	3 ± 0.11
GATGCTGTGG	0.958 ± 0.003
GATGCTTCTG	1.02 ± 0.032

Sequence	switch fluorescence ratio
GATGGAACTA	1.01 ± 0.034
GATGGAACTT	1.02 ± 0.053
GATGGAGTTC	0.983 ± 0.029
GATGGAGTTT	1.03 ± 0.011
GATGGATTTG	1.02 ± 0.033
GATGGCAGCG	1.05 ± 0.045
GATGGCATAA	1.01 ± 0.025
GATGGCATCG	1.02 ± 0.014
GATGGCCATT	1.02 ± 0.018
GATGGCCGTG	0.978 ± 0.018
GATGGCGGGA	1.02 ± 0.025
GATGGGAAAA	1.01 ± 0.021
GATGGGCTAG	0.997 ± 0.025
GATGGGGGTA	0.973 ± 0.033
GATGGGTTTG	0.991 ± 0.028
GATGGTAATT	1 ± 0.025
GATGGTGTGC	1.15 ± 0.29
GATGGTTAGT	0.974 ± 0.036
GATGTAAACC	1.01 ± 0.02
GATGTAATCT	1.02 ± 0.025
GATGTAATTT	1.03 ± 0.023
GATGTACCTC	1.05 ± 0.0046
GATGTAGCTA	1.033 ± 0.00083
GATGTAGGTG	1.007 ± 0.0071
GATGTAGTAG	1.01 ± 0.042

Sequence	switch fluorescence ratio
GATGTCGAGA	1.019 ± 0.0051
GATGTCGCGC	1.01 ± 0.028
GATGTCTGCT	1.019 ± 0.0098
GATGTGATTT	1.08 ± 0.078
GATGTGCTTG	1.01 ± 0.013
GATGTGGGGT	0.987 ± 0.012
GATGTGGTGT	0.984 ± 0.081
GATGTGTGGG	0.9843 ± 0.0015
GATGTGTTCT	0.988 ± 0.042
GATGTTAGGA	0.978 ± 0.034
GATGTTATAA	1 ± 0.029
GATGTTCCGT	0.9958 ± 0.0049
GATGTTGCTT	1.02 ± 0.055
GATTAAAGGT	1.01 ± 0.025
GATTAACGCT	1.03 ± 0.026
GATTAACGTT	0.971 ± 0.036
GATTAAGGAG	0.995 ± 0.011
GATTAATGTT	1 ± 0.022
GATTACAGCG	1.01 ± 0.02
GATTACGGGG	1.006 ± 0.0014
GATTAGATGT	0.9917 ± 0.0067
GATTAGGGGT	0.99655 ± 0.00059
GATTATATCT	0.981 ± 0.033
GATTATCAGA	0.988 ± 0.027
GATTATCTCG	0.99 ± 0.049

Sequence	switch fluorescence ratio
GATTATGAGT	1.02 ± 0.018
GATTATGGTT	0.9891 ± 0.003
GATTATTGGT	0.987 ± 0.031
GATTATTTGT	1.03 ± 0.022
GATTCAAACG	1.006 ± 0.0073
GATTCACGA	0.984 ± 0.015
GATTCAGGGG	1.04 ± 0.026
GATTCAGTAC	1.61 ± 0.056
GATTCCGTGT	1.01 ± 0.031
GATTCGGCGT	0.9867 ± 0.0067
GATTCGGCTA	1.02 ± 0.021
GATTCTCAAG	0.9746 ± 0.0056
GATTCTTTAC	1.03 ± 0.029
GATTGAGACT	1.01 ± 0.026
GATTGAGCTG	1.02 ± 0.043
GATTGATAGG	0.99961 ± 0.00019
GATTGCAAGG	1.02 ± 0.02
GATTGCACTT	1.02 ± 0.031
GATTGCAGGA	0.9989 ± 0.0039
GATTGCATGC	1.032 ± 0.0014
GATTGGCTGT	0.966 ± 0.029
GATTGGGGCA	1.02 ± 0.046
GATTGGGGCG	1.02 ± 0.015
GATTGGTAGG	0.981 ± 0.017
GATTGTAAGA	1.16 ± 0.2

Sequence	switch fluorescence ratio
GATTGTAGGC	1.03 ± 0.011
GATTGTCCGT	0.981 ± 0.031
GATTTAAAAT	1.013 ± 0.0083
GATTTAAAGG	1.04 ± 0.025
GATTTAGAAT	1.01 ± 0.012
GATTTAGCTG	1 ± 0.035
GATTTAGTAA	0.9759 ± 0.0069
GATTTATACT	1.06 ± 0.014
GATTTATTCG	0.983 ± 0.014
GATTTATTTG	0.989 ± 0.048
GATTTCGATG	1.01 ± 0.013
GATTTCGGGA	1.01 ± 0.04
GATTTCGTAT	0.98 ± 0.014
GATTTCTTAT	0.999 ± 0.052
GATTTGGGTT	1.02 ± 0.041
GATTTGTTGG	0.9815 ± 0.0055
GATTTGTTTG	0.985 ± 0.026
GATTTTAGTC	0.993 ± 0.04
GATTTTCAGT	0.975 ± 0.013
GATTTTCCAT	1.03 ± 0.021
GATTTTGACG	1.04 ± 0.067
GATTTTGGAT	0.994 ± 0.012
GATTTTGGCG	1.01 ± 0.046
GATTTTTAGG	0.964 ± 0.015
GATTTTTATC	1.023 ± 0.0031

Sequence	switch fluorescence ratio
GATTTTTGGC	0.9945 ± 0.0087
GATTTTTTAC	0.995 ± 0.037
GCAAAAAATT	1.01 ± 0.025
GCAAAAAGGC	1.03 ± 0.015
GCAAAACGGG	1.02 ± 0.069
GCAAAATTGG	1.04 ± 0.02
GCAAACGTTA	1.07 ± 0.043
GCAAAGGGCT	1 ± 0.035
GCAAATGCGT	1.03 ± 0.059
GCAACCACCG	1.137 ± 0.0038
GCAAGAACAG	1.04 ± 0.036
GCAAGAGATA	1.02 ± 0.017
GCAAGGAGCG	1.03 ± 0.039
GCAAGGAGGA	0.996 ± 0.014
GCAAGTGCAC	0.978 ± 0.04
GCAAGTTACG	1.14 ± 0.041
GCAAGTTAGA	1 ± 0.017
GCAAGTTGGG	1.01 ± 0.028
GCAATAATGC	1.603 ± 0.014
GCAATGATGT	1.06 ± 0.03
GCAATGGTAC	2.21 ± 0.098
GCAATGTAGG	1.04 ± 0.03
GCAATTGCTG	0.9802 ± 0.0023
GCAATTTAGA	1.02 ± 0.016
GCAATTTCAG	1.05 ± 0.021
